In article PMC8517284 (EBioMedicine, 2021) one finds Kd data, which are given here for one molecule.

The assay concerns the target human integrin αvβ3 (R&D Systems, 3050-AV-050) (human, UniProt P06756 31-1048; P05106 27-718). As to the kind of experiment: SPR.

B1: GFP-tagged full-length recombinant human D3 (1-304 aa), D3^FL (enzyme)
chain: MPRQATSRLVVGEGEGSQGASGPAATMLRSLLLHSLRLCAQTASCLVLFPRFLGTAFMLWLLDFLCIRKHFLGRRRRGQPEPEVELNSEGEEVPPDDPPICVSDDNRLCTLASLKAVWHGQKLDFFKQAHEGGPAPNSEVVLPDGFQSQHILDYAQGNRPLVLNFGSCTCPPFMARMSAFQRLVTKYQRDVDFLIIYIEEAHPSDGWVTTDSPYIIPQHRSLEDRVSAARVLQQGAPGCALVLDTMANSSSSAYGAYFERLYVIQSGTIMYQGGRGPDGYQVSELRTWLERYDEQLHGARPRRV
Regarding B1, the affinity, expressed as Kd, was 2110 nM. In other words, the single-digit micromolar range.
